± gives the uncertainty stated by the source.
B1: TOX high mobility group box family member 3, residues 256 to 323; numbered along this chain, O15405 (parent)
chain: QKPVSAYALFFRDTQAAIKGQNPNATFGEVSKIVASMWDSLGEEQKQVYKRKTEAAKKEYLKALAAYR

Variants of: B1
Experiment: abundance fitness (aPCA) (normalised: wild type 0, dead -1); higher = more abundant; growth selection in yeast, the domain comes from the species named
Settings: Homo sapiens

Variant	abundance fitness
QKPVSAYALFFRDTQAAIKGQNPNATFGEVSKIVGSMWDSLGEEQKQVYKRKTEAAKKEYLKALAAYR [A35G]	-0.122 ± 0.056
QKPVSAYALFFRDTQAAIKGQNPNATFGEVSKIVHSMWDSLGEEQKQVYKRKTEAAKKEYLKALAAYR [A35H]	0.001 ± 0.1
QKPVSAYALFFRDTQAAIKGQNPNATFGEVSKIVISMWDSLGEEQKQVYKRKTEAAKKEYLKALAAYR [A35I]	-0.123 ± 0.12
QKPVSAYALFFRDTQAAIKGQNPNATFGEVSKIVKSMWDSLGEEQKQVYKRKTEAAKKEYLKALAAYR [A35K]	-0.024 ± 0.13
QKPVSAYALFFRDTQAAIKGQNPNATFGEVSKIVLSMWDSLGEEQKQVYKRKTEAAKKEYLKALAAYR [A35L]	-0.289 ± 0.068
QKPVSAYALFFRDTQAAIKGQNPNATFGEVSKIVMSMWDSLGEEQKQVYKRKTEAAKKEYLKALAAYR [A35M]	-0.22 ± 0.09
QKPVSAYALFFRDTQAAIKGQNPNATFGEVSKIVPSMWDSLGEEQKQVYKRKTEAAKKEYLKALAAYR [A35P]	-0.826 ± 0.12
QKPVSAYALFFRDTQAAIKGQNPNATFGEVSKIVQSMWDSLGEEQKQVYKRKTEAAKKEYLKALAAYR [A35Q]	-0.01 ± 0.071
QKPVSAYALFFRDTQAAIKGQNPNATFGEVSKIVRSMWDSLGEEQKQVYKRKTEAAKKEYLKALAAYR [A35R]	0.12 ± 0.048
QKPVSAYALFFRDTQAAIKGQNPNATFGEVSKIVSSMWDSLGEEQKQVYKRKTEAAKKEYLKALAAYR [A35S]	-0.037 ± 0.05
QKPVSAYALFFRDTQAAIKGQNPNATFGEVSKIVTSMWDSLGEEQKQVYKRKTEAAKKEYLKALAAYR [A35T]	-0.066 ± 0.08
QKPVSAYALFFRDTQAAIKGQNPNATFGEVSKIVVSMWDSLGEEQKQVYKRKTEAAKKEYLKALAAYR [A35V]	-0.727 ± 0.19
QKPVSAYALFFRDTQAAIKGQNPNATFGEVSKIVWSMWDSLGEEQKQVYKRKTEAAKKEYLKALAAYR [A35W]	-0.16 ± 0.076
QKPVSAYALFFRDTQAAIKGQNPNATFGEVSKIVYSMWDSLGEEQKQVYKRKTEAAKKEYLKALAAYR [A35Y]	-0.197 ± 0.13
QKPVSAYALFFRDTQAAIKGQNPNATFGEVSKIVAAMWDSLGEEQKQVYKRKTEAAKKEYLKALAAYR [S36A]	0.005 ± 0.036
QKPVSAYALFFRDTQAAIKGQNPNATFGEVSKIVACMWDSLGEEQKQVYKRKTEAAKKEYLKALAAYR [S36C]	-0.317 ± 0.24
QKPVSAYALFFRDTQAAIKGQNPNATFGEVSKIVADMWDSLGEEQKQVYKRKTEAAKKEYLKALAAYR [S36D]	-0.03 ± 0.096
QKPVSAYALFFRDTQAAIKGQNPNATFGEVSKIVAEMWDSLGEEQKQVYKRKTEAAKKEYLKALAAYR [S36E]	0.044 ± 0.042
QKPVSAYALFFRDTQAAIKGQNPNATFGEVSKIVAFMWDSLGEEQKQVYKRKTEAAKKEYLKALAAYR [S36F]	-0.242 ± 0.12
QKPVSAYALFFRDTQAAIKGQNPNATFGEVSKIVAGMWDSLGEEQKQVYKRKTEAAKKEYLKALAAYR [S36G]	0.01 ± 0.053
QKPVSAYALFFRDTQAAIKGQNPNATFGEVSKIVAHMWDSLGEEQKQVYKRKTEAAKKEYLKALAAYR [S36H]	-0.065 ± 0.11
QKPVSAYALFFRDTQAAIKGQNPNATFGEVSKIVAIMWDSLGEEQKQVYKRKTEAAKKEYLKALAAYR [S36I]	-0.191 ± 0.094
QKPVSAYALFFRDTQAAIKGQNPNATFGEVSKIVALMWDSLGEEQKQVYKRKTEAAKKEYLKALAAYR [S36L]	-0.344 ± 0.052
QKPVSAYALFFRDTQAAIKGQNPNATFGEVSKIVAMMWDSLGEEQKQVYKRKTEAAKKEYLKALAAYR [S36M]	-0.097 ± 0.057
QKPVSAYALFFRDTQAAIKGQNPNATFGEVSKIVANMWDSLGEEQKQVYKRKTEAAKKEYLKALAAYR [S36N]	-0.054 ± 0.076
QKPVSAYALFFRDTQAAIKGQNPNATFGEVSKIVAPMWDSLGEEQKQVYKRKTEAAKKEYLKALAAYR [S36P]	-0.587 ± 0.12
QKPVSAYALFFRDTQAAIKGQNPNATFGEVSKIVAQMWDSLGEEQKQVYKRKTEAAKKEYLKALAAYR [S36Q]	0.164 ± 0.065

Variant	abundance fitness
QKPVSAYALFFRDTQAAIKGQNPNATFGEVSKIVARMWDSLGEEQKQVYKRKTEAAKKEYLKALAAYR [S36R]	-0.114 ± 0.056
QKPVSAYALFFRDTQAAIKGQNPNATFGEVSKIVATMWDSLGEEQKQVYKRKTEAAKKEYLKALAAYR [S36T]	0.067 ± 0.067
QKPVSAYALFFRDTQAAIKGQNPNATFGEVSKIVAVMWDSLGEEQKQVYKRKTEAAKKEYLKALAAYR [S36V]	-0.218 ± 0.065
QKPVSAYALFFRDTQAAIKGQNPNATFGEVSKIVAWMWDSLGEEQKQVYKRKTEAAKKEYLKALAAYR [S36W]	-0.671 ± 0.13
QKPVSAYALFFRDTQAAIKGQNPNATFGEVSKIVAYMWDSLGEEQKQVYKRKTEAAKKEYLKALAAYR [S36Y]	-0.182 ± 0.08
QKPVSAYALFFRDTQAAIKGQNPNATFGEVSKIVASAWDSLGEEQKQVYKRKTEAAKKEYLKALAAYR [M37A]	-0.063 ± 0.071
QKPVSAYALFFRDTQAAIKGQNPNATFGEVSKIVASCWDSLGEEQKQVYKRKTEAAKKEYLKALAAYR [M37C]	-0.186 ± 0.084
QKPVSAYALFFRDTQAAIKGQNPNATFGEVSKIVASDWDSLGEEQKQVYKRKTEAAKKEYLKALAAYR [M37D]	-0.488 ± 0.16
QKPVSAYALFFRDTQAAIKGQNPNATFGEVSKIVASEWDSLGEEQKQVYKRKTEAAKKEYLKALAAYR [M37E]	-0.104 ± 0.065
QKPVSAYALFFRDTQAAIKGQNPNATFGEVSKIVASFWDSLGEEQKQVYKRKTEAAKKEYLKALAAYR [M37F]	-0.427 ± 0.13
QKPVSAYALFFRDTQAAIKGQNPNATFGEVSKIVASGWDSLGEEQKQVYKRKTEAAKKEYLKALAAYR [M37G]	-0.486 ± 0.067
QKPVSAYALFFRDTQAAIKGQNPNATFGEVSKIVASHWDSLGEEQKQVYKRKTEAAKKEYLKALAAYR [M37H]	-0.227 ± 0.085
QKPVSAYALFFRDTQAAIKGQNPNATFGEVSKIVASIWDSLGEEQKQVYKRKTEAAKKEYLKALAAYR [M37I]	-0.422 ± 0.13
QKPVSAYALFFRDTQAAIKGQNPNATFGEVSKIVASKWDSLGEEQKQVYKRKTEAAKKEYLKALAAYR [M37K]	0.037 ± 0.065
QKPVSAYALFFRDTQAAIKGQNPNATFGEVSKIVASLWDSLGEEQKQVYKRKTEAAKKEYLKALAAYR [M37L]	-0.219 ± 0.047
QKPVSAYALFFRDTQAAIKGQNPNATFGEVSKIVASNWDSLGEEQKQVYKRKTEAAKKEYLKALAAYR [M37N]	-0.114 ± 0.13
QKPVSAYALFFRDTQAAIKGQNPNATFGEVSKIVASRWDSLGEEQKQVYKRKTEAAKKEYLKALAAYR [M37R]	0.013 ± 0.042
QKPVSAYALFFRDTQAAIKGQNPNATFGEVSKIVASSWDSLGEEQKQVYKRKTEAAKKEYLKALAAYR [M37S]	-0.265 ± 0.056
QKPVSAYALFFRDTQAAIKGQNPNATFGEVSKIVASTWDSLGEEQKQVYKRKTEAAKKEYLKALAAYR [M37T]	-0.036 ± 0.075
QKPVSAYALFFRDTQAAIKGQNPNATFGEVSKIVASVWDSLGEEQKQVYKRKTEAAKKEYLKALAAYR [M37V]	-0.317 ± 0.064
QKPVSAYALFFRDTQAAIKGQNPNATFGEVSKIVASWWDSLGEEQKQVYKRKTEAAKKEYLKALAAYR [M37W]	-0.874 ± 0.12
QKPVSAYALFFRDTQAAIKGQNPNATFGEVSKIVASYWDSLGEEQKQVYKRKTEAAKKEYLKALAAYR [M37Y]	-0.826 ± 0.32
QKPVSAYALFFRDTQAAIKGQNPNATFGEVSKIVASMCDSLGEEQKQVYKRKTEAAKKEYLKALAAYR [W38C]	-0.743 ± 0.11
QKPVSAYALFFRDTQAAIKGQNPNATFGEVSKIVASMDDSLGEEQKQVYKRKTEAAKKEYLKALAAYR [W38D]	-0.789 ± 0.21
QKPVSAYALFFRDTQAAIKGQNPNATFGEVSKIVASMEDSLGEEQKQVYKRKTEAAKKEYLKALAAYR [W38E]	-0.653 ± 0.12
QKPVSAYALFFRDTQAAIKGQNPNATFGEVSKIVASMFDSLGEEQKQVYKRKTEAAKKEYLKALAAYR [W38F]	-0.716 ± 0.2
QKPVSAYALFFRDTQAAIKGQNPNATFGEVSKIVASMGDSLGEEQKQVYKRKTEAAKKEYLKALAAYR [W38G]	-0.855 ± 0.12

Variant	abundance fitness
QKPVSAYALFFRDTQAAIKGQNPNATFGEVSKIVASMHDSLGEEQKQVYKRKTEAAKKEYLKALAAYR [W38H]	-0.727 ± 0.45
QKPVSAYALFFRDTQAAIKGQNPNATFGEVSKIVASMIDSLGEEQKQVYKRKTEAAKKEYLKALAAYR [W38I]	-1.2 ± 0.42
QKPVSAYALFFRDTQAAIKGQNPNATFGEVSKIVASMKDSLGEEQKQVYKRKTEAAKKEYLKALAAYR [W38K]	-0.799 ± 0.16
QKPVSAYALFFRDTQAAIKGQNPNATFGEVSKIVASMMDSLGEEQKQVYKRKTEAAKKEYLKALAAYR [W38M]	-0.416 ± 0.098
QKPVSAYALFFRDTQAAIKGQNPNATFGEVSKIVASMNDSLGEEQKQVYKRKTEAAKKEYLKALAAYR [W38N]	-0.843 ± 0.26
QKPVSAYALFFRDTQAAIKGQNPNATFGEVSKIVASMPDSLGEEQKQVYKRKTEAAKKEYLKALAAYR [W38P]	-1.03 ± 0.22
QKPVSAYALFFRDTQAAIKGQNPNATFGEVSKIVASMRDSLGEEQKQVYKRKTEAAKKEYLKALAAYR [W38R]	-0.918 ± 0.12
QKPVSAYALFFRDTQAAIKGQNPNATFGEVSKIVASMSDSLGEEQKQVYKRKTEAAKKEYLKALAAYR [W38S]	-0.863 ± 0.098
QKPVSAYALFFRDTQAAIKGQNPNATFGEVSKIVASMTDSLGEEQKQVYKRKTEAAKKEYLKALAAYR [W38T]	-1.28 ± 0.37
QKPVSAYALFFRDTQAAIKGQNPNATFGEVSKIVASMVDSLGEEQKQVYKRKTEAAKKEYLKALAAYR [W38V]	-1.07 ± 0.14
QKPVSAYALFFRDTQAAIKGQNPNATFGEVSKIVASMYDSLGEEQKQVYKRKTEAAKKEYLKALAAYR [W38Y]	-0.206 ± 0.14
QKPVSAYALFFRDTQAAIKGQNPNATFGEVSKIVASMWASLGEEQKQVYKRKTEAAKKEYLKALAAYR [D39A]	-0.026 ± 0.064
QKPVSAYALFFRDTQAAIKGQNPNATFGEVSKIVASMWCSLGEEQKQVYKRKTEAAKKEYLKALAAYR [D39C]	-0.055 ± 0.43
QKPVSAYALFFRDTQAAIKGQNPNATFGEVSKIVASMWESLGEEQKQVYKRKTEAAKKEYLKALAAYR [D39E]	0.022 ± 0.084
QKPVSAYALFFRDTQAAIKGQNPNATFGEVSKIVASMWFSLGEEQKQVYKRKTEAAKKEYLKALAAYR [D39F]	-0.167 ± 0.07
QKPVSAYALFFRDTQAAIKGQNPNATFGEVSKIVASMWGSLGEEQKQVYKRKTEAAKKEYLKALAAYR [D39G]	-0.21 ± 0.065
QKPVSAYALFFRDTQAAIKGQNPNATFGEVSKIVASMWHSLGEEQKQVYKRKTEAAKKEYLKALAAYR [D39H]	-0.065 ± 0.09
QKPVSAYALFFRDTQAAIKGQNPNATFGEVSKIVASMWLSLGEEQKQVYKRKTEAAKKEYLKALAAYR [D39L]	-0.224 ± 0.042
QKPVSAYALFFRDTQAAIKGQNPNATFGEVSKIVASMWMSLGEEQKQVYKRKTEAAKKEYLKALAAYR [D39M]	-0.191 ± 0.08
QKPVSAYALFFRDTQAAIKGQNPNATFGEVSKIVASMWNSLGEEQKQVYKRKTEAAKKEYLKALAAYR [D39N]	-0.217 ± 0.21
QKPVSAYALFFRDTQAAIKGQNPNATFGEVSKIVASMWPSLGEEQKQVYKRKTEAAKKEYLKALAAYR [D39P]	-0.829 ± 0.11
QKPVSAYALFFRDTQAAIKGQNPNATFGEVSKIVASMWQSLGEEQKQVYKRKTEAAKKEYLKALAAYR [D39Q]	0.003 ± 0.088
QKPVSAYALFFRDTQAAIKGQNPNATFGEVSKIVASMWRSLGEEQKQVYKRKTEAAKKEYLKALAAYR [D39R]	-0.016 ± 0.05
QKPVSAYALFFRDTQAAIKGQNPNATFGEVSKIVASMWSSLGEEQKQVYKRKTEAAKKEYLKALAAYR [D39S]	0.021 ± 0.045
QKPVSAYALFFRDTQAAIKGQNPNATFGEVSKIVASMWTSLGEEQKQVYKRKTEAAKKEYLKALAAYR [D39T]	-0.292 ± 0.092
